{
  "source": "patent US20170298375",
  "about": "“CONTROL OF CELLULOSE BIOSYNTHESIS BY OVEREXPRESSION OF A TRANSCRIPTION FACTOR” (Board of Trustees of Michigan State University, published 2017)",
  "binders": {"B1": {"name": "ProCesA4wt (dsDNA)", "DNA 1": "TCACTCACAGTTTGGTACAACCTCA", "DNA 2": "TGAGGTTGTACCAAACTGTGAGTGA"}, "B2": {"name": "ProCesA7wt (dsDNA)", "DNA 1": "CAGAAAATTCACCTAATTAAGGACA", "DNA 2": "TGTCCTTAATTAGGTGAATTTTCTG"}, "B3": {"name": "ProCesA8wt (dsDNA)", "DNA 1": "CTTATAGAAAGTTGGTGATTGAAAA", "DNA 2": "TTTTCAATCACCAACTTTCTATAAG"}},
  "key": {"[1]": {"target": "T1, GST-MYB46 (Arabidopsis thaliana, UniProt Q9LXV2 SEQ:1-280)", "T1 sequence (Q9LXV2 whole entry, the tested form may be a part)": "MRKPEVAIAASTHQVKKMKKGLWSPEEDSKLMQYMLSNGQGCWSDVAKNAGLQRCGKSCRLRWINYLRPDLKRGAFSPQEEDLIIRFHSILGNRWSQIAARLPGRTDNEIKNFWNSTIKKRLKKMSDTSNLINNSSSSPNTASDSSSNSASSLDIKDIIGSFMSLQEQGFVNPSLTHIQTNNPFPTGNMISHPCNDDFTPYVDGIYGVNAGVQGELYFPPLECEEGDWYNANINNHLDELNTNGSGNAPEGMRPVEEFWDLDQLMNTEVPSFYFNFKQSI", "assay": "EMSA; labelled fragment stated as -248 to -69 in text; 5 mM MgCl2, 50 mM KCl, pH 7.5", "settings": "tags: GST fusion, E. coli Rosetta gami; label: 32P", "protocol": "(§1) A GST-MYB46 fusion protein was first incubated with the wild type, double-stranded ³²P-labeled oligodeoxynucleotides with the wild type CESA4, CESA7 and CESA8 promoter sequences shown in FIG. 3A. The GST protein was used as control protein. Unlabeled competitor promoter oligonucleotides were then added the assays to generate the assay mixtures identified FIG. 3B, where the competitors were oligonucleotides with wild type and mutated CESA4, CESA7 and CESA8 promoter sequences shown in FIG. 3A. […] To generate the results shown FIG. 3B, each assay mixture was then subjected to an electrophoretic mobility shift assay (EMSA) by polyacrylamide gel electrophoresis (PAGE). […] The promoter regions used for the DNA probes in each experiment are indicated below the gel images. Competition for the protein-DNA binding was performed using 60× unlabeled probes. The free unbound DNA probes are indicated by the arrow.\n(§2) DNA fragments for EMSA were obtained by PCR-amplification and labeled with [γ-³²P]ATP using T4 polynucleotide kinase (NEB). The end-labeled probes were purified with Microspin S-200 HR column (GE Healthcare). The labeled DNA fragments were incubated for 25 min with 50 ng of GST-MYB46 in a binding buffer [10 mM. Tris (pH 7.5), 50 mM KCl, 1 mM DTT, 2.5% glycerol, 5 mM MgCl₂, 100 μg/ml BSA, and 50 ng/μL poly(dI-dC)]."}, "[2]": {"target": "GST (UniProt P08515 P08515:1-218)", "sequence (P08515 whole entry, one chain of several)": "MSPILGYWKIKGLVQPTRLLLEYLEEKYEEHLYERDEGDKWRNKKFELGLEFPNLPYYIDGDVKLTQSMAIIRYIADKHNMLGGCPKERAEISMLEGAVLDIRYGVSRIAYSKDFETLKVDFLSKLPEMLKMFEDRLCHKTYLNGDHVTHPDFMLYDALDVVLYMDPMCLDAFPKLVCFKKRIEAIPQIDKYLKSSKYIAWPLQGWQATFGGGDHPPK", "assay": "EMSA; GST alone control", "settings": "tags: GST alone control; label: 32P", "protocol": "as §1, §2"}, "[3]": {"target": "T1, GST-MYB46", "assay": "EMSA; labelled fragment stated as -662 to -486 in text", "settings": "tags: GST fusion, E. coli Rosetta gami; label: 32P", "protocol": "as §1, §2"}, "[4]": {"target": "T1, GST-MYB46", "assay": "EMSA; labelled fragment stated as -525 to -358 in text", "settings": "tags: GST fusion, E. coli Rosetta gami; label: 32P", "protocol": "as §1, §2"}},
  "data": [
    {"binder": "B1", "values": [
      {"measurement": "binding result", "setting": "[1]", "result": "binds"},
      {"measurement": "binding result", "setting": "[2]", "result": "no binding"}
    ]},
    {"binder": "B2", "values": [
      {"measurement": "binding result", "setting": "[3]", "result": "binds"},
      {"measurement": "binding result", "setting": "[2]", "result": "no binding"}
    ]},
    {"binder": "B3", "values": [
      {"measurement": "binding result", "setting": "[4]", "result": "binds"},
      {"measurement": "binding result", "setting": "[2]", "result": "no binding"}
    ]}
  ]
}
